The chains are these.
B1: 4-O-(Ac-4-trans-L-HypSSChgQ-S(dS)-4-trans-L-Hyp)-dAc-VIN (peptide)
peptide: XSSXQSXX
modifications: N-terminal acetyl; 4-trans-L-hydroxyproline at 1 and 8; Chg at 4; D-Ser at 7; C-terminus esterified to the 4-O of des-acetylvinblastine
B2: 4-O-[(2-OH)Ac-SChgQSS-Sar]-dAc-VIN (peptide)
peptide: XXQSSX
modifications: N-terminal hydroxyacetyl ((2-OH)Ac); Chg at 2; sarcosine at 6, esterified to the 4-O of des-acetylvinblastine
B3: 4-O-(Ac-4-trans-L-HypSSChgQSS-(d)-Pro)-(dAc)-VIN (peptide)
peptide: XSSXQSSP
modifications: N-terminal acetyl; 4-trans-L-hydroxyproline at 1; Chg at 4; D-Pro at 8, esterified to the 4-O of des-acetylvinblastine

The target of the experiment is free prostate specific antigen (PSA) (human, UniProt P07288 25-261). Nature of the experiment: cell-based or functional assay.
With B1, the “Time to 50% Substrate Cleavage by York PSA (Min); cell gives percent cleaved at 1 hour” value was 12 % cleaved at 1 hour.
For the molecule B2, the “Time to 50% Substrate Cleavage by York PSA (Min); cell gives percent cleaved at 1 hour” value was 4 % cleaved at 1 hour.
In the case of B3 it was 34 % cleaved at 1 hour.

For the origin of these results see US20040081659A1 (MERCK, published 2004).
